Measurements taken from patent US20240026407A1, “MODIFICATION OF SAPONINS” (GLAXOSMITHKLINE BIOLOGICALS SA, priority 2020, published 2024).

B1: 1047 (protein, listed as Brachybacterium faecium)
chain: MSSHTAQHVLDALTHPDPAARPMMRWWWFGPDMDRAEIDRELRAMAAAGLGGAEIALVYPLRPGAPDYLGDEALGHVRHAAERARELGLRLDVTLGSGWSYGGPHIGPEQAARRLRWERRDLGPQPLSWPLTPSWPGDELVSVHLGEGLPPSGWTRLDPVGERLEIPAGRGPRTVLLAWSEVTGQQVKRSAAGAEGPVVDHLSATAVRHHLDVVGGALLSAVPAHLLGSVFSDSLEVYDAGWTAALPEQFRQRRGYDLLPVLHLLEVDAPGAEQVREDYGLTLSELVEEGFVGTCRAWAEEHGVRFRLQGYGQPPITLSAQRGAHLIEGEGAGWTALTQSRWASSAAHLDRREVVSSEVWTWVRSPAFRAAPLDLLGEAHEHLLLGITHFVGHGWPYTAPDAPGLGWTFYAAGALDDRNAWWPAMPELTAHLTRLCAALRLGAPGAEVALYLPYADVRAARGRGHDLWAACRAHIGEQLPAAIRRAGYDLDLLDDDALAALDPAAYPVVVLPRVSRLPAETRRWLDRVRAAGGSVLAVDSPAYPAGQQLSLPEEDGDDARLRDHATLAMVGARGGSDAEGEEGADGEGADGEAAGGKNPLAAALRGAHTPPLLLSGDGGEVGTVHRRLADGDLHLLAHTGPRRREVEVTPRDPRRALALHDPAEPGLRPLPSTGARLVLHPYQAVLLLATDQPLPAPDGAAPATDAAHGPAQTGTAEPEPIALDGPWTASRPGEAPRAVTLPHLLTGQDAADLRPLLLETTVTLDEDTARGPLVLDLGPGRAVPHTGEGSGYRALLEPPVREIAVLEVDGEELGVLWRPPYRIALTGRLRAGTSRLRLRIHGTTAAAAALPENAEAAAGQVAAAHETYGERFQPQELERMLDGVATGLASVPVLRRAGG
B2: 1033 (protein, listed as Pedobacter heparinus)
chain: MNRRTFIQNTSIATSSLVFFNQFESLAFSKSDQDLYTLFKNPPANYRPFVRWWWNGNKIQKKELFRQLTLLKDAGIGGVEINPISFPNKADDMGIKSLRWLSDEWIDLVKDTCNEARSKDMTCDLIVGSGWPFGSEDLKEEERAEVVLVFAEKVEGPMVYETTKYSIYNAIDPQVTDKNPLRSPILMDLKLSQDPIAAIATTIDFSNQINNDIIKIDVPEGKHCIYALVKFKSFAKVINGAPGASGSILNHLNKQAVESYLNRMSSTMQDRIGPLSNYLRALFTDSMELEGCNWCEDFPAEFKKRCGYDLMPYLPFILFKVGRLGAVVDEDYGAEKSQDLNVILKKVRFDFEYTKALLLRERFTEVYLKWCKELKVKSRAQAYGRGFFPLETSLGYDIPEGESWTTNYLRHKLGEEMSDEDYRRGRGYTMINKYVSSAAHLTGKRIVSCEEMTNTYLVFNATLELLKLGSDQSIMSGITHSVWHGFNYSPKEVAFPGWVQYGSYYSEKNNWWPYFKYLNDYKARLSSQLQHGDYYTDIAILPANYDLWANNGVQTDPFPEKLNVPYTSLLWEAINKNGGAADYITDMILTQSEIIKGKIVYGKKSFGVLFLPGVESLSELAMQKIEQFVKTGGKVICIEKYPAKGLGFLNWEQKDATIKDAVARLKQQFSDRFIFLDKPADNKFLEWYTPLIATHQLPSYLNISTPNRYFMQIRSVRDDGTEMFFFQNAHRYDAYQARVVFDRKKIKGKYAWVWDLDSGERFRLTLTNDTTFEYNFGPTESLLIIFDQIKNGEKWKPLLSSGKSTLNLDKVWDLELRNSLDGSVKHVNLPQVIDMKDDKELVNFTGTAIYRKKITLTDTKNLVINLGKVYGITQLYINKVQVGIKWYGKRFFDISKYVQTGTNDIEIHLVTTMGNYMKTLTDNEIAQYWVNRKGREQEIQSMGIVGPIEIYQQN
B3: 1019 (protein)
chain: MNKKQLILLCMLAAGGSIQAQQWPDAPAEARPGTRWWWLGSAVDEKNLTYNLEEYARAGMGAVEITPIYGVQGNDANDIQFLSPRWMEVLKHTQAEGKRTGIEIDMNTGTGWPFGGPEVSIEDAASKAIFQTYDIEGGQEIVQDINVTDKKQQPYSVLSRVMAYDENGRCINLTSHVRKDKLVWKAPAGKWKVIALYNSKTRQKVKRAAPGGEGYVMNHLSKTAVKNYLSRFNRAFKSSKTSYPHTFFNDSYEVYQADWTEDFLDQFARRRGYKLEEHFPEFLDENRPEISRRIVSDYRETISDLLLENFTRQWTDWAHKNGSITRNQAHGSPANLIDVYAAVDIPECEGFGLSQFHIKGLRQDSLTKKNDSDLSMLKYASSAAHIAGKPYTSTETFTWLTEHFRTSLSQCKPDMDLMFVSGINHMFFHGTPYSPKEAEWPGWLFYASINMNPTNSIWHDAPSFFDYITRCQSFLQMGKPDNDFLIYLPVYDMWDEQPGRLLLFSIHHMAKLAPKFIDAIHRINNSGYDGDYISDNFIRSTRFKDGQLITSGGTGYKALVVPAAHLMPNDVLAHLLKLAQQGATIVFLENYPTDVPGYGQLEQKRKTYQQTLQKLPSVSFSETTVTPVGKGKIITGTDYARTLASCNIPQEEMKTKFGLQAIRRVNDSGHHYFISSLQDKGVNDWVTLGTKAKAAALFNPMTGECGEAKVRQAGEQTQVYLQLKSGESVILQTYQQPLQAARPWKYIQEQPFSLSLDHGWKLHFAESEPKIKGTFDIDRPCSWTGIDHPAAKINMGSGVYSLDIELPALQADDWVLDLGDVRESARVRINGQEAGCAWAVPYQLRVGHLLKSGKNHIEIEVTNLPANRISELDRQGVQWRKFKEINIVDLNYRPANYGHWAPMPSGLNSEVRLIPVDYLSFKTH
modifications: Bacteroides thetaiotaomicron
B4: 1059 (protein, listed as Solibacter usitatus)
chain: MVEMSVPVLRSSAFIALLAGLALGADPANITELQRGFQHPPDEARIMVRWWWFGPAVTKPELEREMRLMKQGGIGGFEVQPTYALELDNAEKGIKNLPYMSPEFLEALRFTGEKAKELGLRMDLTLGSGWPFGGPHIPVELASPRLRVARAAVTAGAAAINVPELQPSEKLIAAFLGNQELEAAGSQSFRLPPSAAGQVTFFISSHTRQTVKRPAVGAEGWVLNHYDRAAIEQHFKSVGEPMLNALAKTPPAAIFSDSLEVYNSDWTGDFLAQFAKRRGYDLKPYLPALAGDIGEKTGAIRNDWGQTLSELAEENYLKPLTAWAHQHNTKFRSQTYGIPPVTLSSYSLVDLPEGEGTQWRHFSSTRWATSASHLYNRPVTSSETWTWLHSPVFRATPLDMKAEADLHFLQGVNQLVAHGWPYSPPSVGEPGWRFYAAAVFNEHNPWWIVMPDIATYMQRVSWMLRQGKPVNDVAVYLPTHDAFAGFTLGRDSVNQAMEGILGPKLVPTILDAGYGFDFIDDGAIAAGGVPHKILIVPGAERIPLATYQKIEEYRRDGGKVFFTKRLPSLAPGLREEGDTAKIRELSAKHVVTGDDGLAGALHDALPADFTAPPEIGVVHRKLAYADVYFLANTSNHAVKGAAKFRASGMPAAWWDPVTGKSSKADLNLELAPYESRVLVFSRAGGAVMGQAMSLPEVDISSDWTITFPGEQPVKMATLRPWTDEENRKFYSGTATYERKVTATPAMAAAHVFLNFGEGTVADPASERRAPSGMRAWLESPVREAAQVFVNGKPAGAVWKAPYEVDVTGLLQAGENSIRVVVANLALNVLAKGPLPDYKELTAKYGEKFQAQDMQSVRALPGGMMGPVKLVSK
B5: 1071 (protein, listed as Opitutus terrae)
chain: MKRMKIMKRRIDIFRSSLFLGAYPAMAAPFVQRSAWIWSAEGTHAAPAPESASPSHYQVRLFRRVFLLENGGREGRIAVSADSRYVLYCNGALIGRGPARGDVHHQFYDTYELAPYLHRGANVLAALVLDMSHVAHRPAALGAPGGVMTYAGGFLLEGGVVDLNDRMEILDTGAAGWKVTVDRSYRFQNDGTRFEGYHGYFEHRVSAEAPADWTAASFDDSAWPDATVLYRAERLENRRDPASPYGLVARMIPPMEVGRVARFAAGVLPGGGKPGAEWKRLAAGKGAVTIPARSTVRIILDAGRMTTAYPLVQTDGGPGAHIRLTYAEALRLPWSTVGARMLGRPQSLANLASHFADESSGWTFDARGHVTGWSDRWEPAGRPREVFEPWHWRSFRFVELEIVTAEEPMELTDLGYRFTAYPYRVEAEFACSDPRLERIWQTALHTMRLCSHETFVDCPHYEQMQYAGDTMITSKLAMLSTGDYALSRQALLQFDWSRIPDGLTQSRYPSRLLQVIPSWSLHWITSIRDYACCSGDLQTVNEVLPGVRVVLDWYRRHADPSGLPSRLPYWNITDWCSWWPRGVVPGADEGPTCIISAQFVQALAEAADLHGWVGQRHEQRRLATEVKTLRGVLRRRFWSRDEGLFFDKPGGPEVSQYGNAWAIVCGAATAADRKRMLARFPADPLLAPGSFFCWHAVFRALEAAGAYDRLPEFLGPWHEMVEAGLDTFVEENSYWRSLCHAWSAHPALEFLAGVLGVKALEPGFATVRVTPHRCGLREARGQVCTPRGPITVAWTWEKGRFRIRVTAPRELQVEIGLPDGSDHRMTHGRFETEVVIHEA
B6: 1064 (protein, listed as Lachnospiraceae bacterium)
chain: MEIYNLKINGMVNPIGFEYKEIICSWKVRKTEDKQQKKARISISADQEFHEIVFQIEGEELDSTGTLADFKIKPYTTYYWKVYVEGENGEYGTSETAFFETAKMCHKWKADWIGTDKEDTFHPVFQKKFYLRDGIKKARLYCCGLGVYEGYINGKKAGNDYLAPFINDYKDNLQYQTYDITDLLFQQKENKIEFLLGKGWYIGKFGLDGCEKIFGDEMMLIAEIRVEYFDGRIEVICTDDNWKYKGSDIEDSGIYFGEKINRQLWDDRQNLWKQAVKKKQKTPLKERYSLPLTVKEDIVPVKIIHTPIGETVLDVGQNMVGYMEFFADFPKGTRIKIECGEILQHGNFCHDNYTIAESTFEYISDGRKETVRPHFTYMGFRYLRVTGWPNEIKLGDIKCRVIYSDLQRTGFCKTQNSMLNQLYENCIWSQKSNFVDMPTDCPQRGERLGWTGDAQVFAATACYNMDTRAFYRKYLRDIRSHQLRKNGAIPNFIPDLGTFSEACSIWGDAATILPYQIYQSYGCAEEIRSYYTTMKDWVEYMVSMDESQGRHYKFQPGFQFGDWLALDGITEQSLKGSTDDNYIGCCYYYHSVKITSEIAQVLGYTEDAQRYQELSGKIRKAILNEYFTPKGRLSVDTQTAYIIALKFGLYNNKNVLIQQFKERLTRDCYKIKCGFAGTPLLCSVLGENGMEDIAYRILLNKDYPGWLYCVNLGATTVWERWNSVLSDGMLSGTGMNSLNHYAYGSVVQYFYEYIAGIRPKRPGFKEAFIEPKPDIRIQGVMCSYDSAMGVYKSEWKIQENGLICIHIEIPFNCTADVLLPEYSSNGLTYSDNVNGEMISENGKLQLCSGKYDFAYFPKNDYRHVYKPESILGDLREDKEALEILEKNIPVLYEIIQSNDIENMLITLQEFDTLHFMGIDPEIADETRKKIYNLNYYGK

Experiments:
Type in all cases: biochemical, Quillaja saponaria
[1] = Experiment 6-1: screening of rhamnosidases for derhamnosylation of saponins in treated bark extract (2%), QS-17 2296 to QS-18 2150 (PAR %); details: TBE 2%, pH 7.5, 30 degC, 18 h; TIC peak area ratio percent of rhamnosylated starting saponin to derhamnosylated product, LCMS/MS; negative controls 4.876, 5.225
[2] = Experiment 6-1: screening of rhamnosidases for derhamnosylation of saponins in treated bark extract (2%), QS-17 2310 to QS-18 2164 (PAR %); details: TBE 2%, pH 7.5, 30 degC, 18 h; TIC peak area ratio percent, LCMS/MS; negative controls 3.061, 2.429
[3] = Experiment 6-1: screening of rhamnosidases for derhamnosylation of saponins in treated bark extract (2%), desglucosyl-QS-17 2134 to QS-21 1988 (PAR %); details: TBE 2%, pH 7.5, 30 degC, 18 h; TIC peak area ratio percent, LCMS/MS; negative controls 2.719, 2.158
[4] = Experiment 6-1: specificity of rhamnosidases towards other rhamnose residues (C3 saccharide rhamnose, C28 saccharide rhamnose); details: TBE 2%, pH 7.5, 30 degC, 18 h; LCMS/MS; negative controls 0.18, 0.17

Molecule | QS-17 (PAR %) [1] | Peak57 (PAR %) [2] | Peak75 (PAR %) [3] | ratio PP/QS-21 [4]
B1 | 4.669% | 3.332% | 2.456% | 0.17
B2 | 4.485% | 2.927% | 2.521% | 0.16
B3 | 4.626% | 2.390% | 2.982% | 0.15
B4 | 4.613% | 2.956% | 2.534% | 0.16
B5 | 4.587% | 2.650% | 2.574% | 0.17
B6 | 4.625% | 3.009% | 2.476% | 0.18
